From patent US20160136299A1 (Sanofi, published 2016)

B1: Anti-αβTCR clone H66 S298N/Y300S antibody (antibody, human IgG1, kappa)
heavy: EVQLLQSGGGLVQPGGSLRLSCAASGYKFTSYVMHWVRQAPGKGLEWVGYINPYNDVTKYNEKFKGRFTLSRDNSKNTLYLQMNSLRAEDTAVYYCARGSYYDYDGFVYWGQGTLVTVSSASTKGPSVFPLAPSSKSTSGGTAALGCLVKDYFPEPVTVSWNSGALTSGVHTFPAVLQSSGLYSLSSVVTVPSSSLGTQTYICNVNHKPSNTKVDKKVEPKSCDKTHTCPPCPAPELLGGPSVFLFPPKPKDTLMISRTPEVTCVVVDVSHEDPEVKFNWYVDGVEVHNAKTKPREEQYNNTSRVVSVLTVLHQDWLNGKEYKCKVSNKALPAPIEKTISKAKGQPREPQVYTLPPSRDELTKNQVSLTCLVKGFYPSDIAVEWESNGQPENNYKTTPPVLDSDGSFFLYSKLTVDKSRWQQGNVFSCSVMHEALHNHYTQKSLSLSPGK
light: EIVLTQSPATLSLSPGERATLSCSATSSVSYMHWYQQKPGQAPRRLIYDTSKLASGVPARFSGSGSGTSYTLTISSLEPEDFAVYYCQQWSSNPLTFGGGTKVEIKRTVAAPSVFIFPPSDEQLKSGTASVVCLLNNFYPREAKVQWKVDNALQSGNSQESVTEQDSKDSTYSLSSTLTLSKADYEKHKVYACEVTHQGLSSPVTKSFNRGEC
notes: Full-length human IgG1; also called SY; S298N/Y300S H66
B2: Anti-αβTCR clone H66 N297Q/S298N/Y300S antibody (antibody, human IgG1, kappa)
heavy: EVQLLQSGGGLVQPGGSLRLSCAASGYKFTSYVMHWVRQAPGKGLEWVGYINPYNDVTKYNEKFKGRFTLSRDNSKNTLYLQMNSLRAEDTAVYYCARGSYYDYDGFVYWGQGTLVTVSSASTKGPSVFPLAPSSKSTSGGTAALGCLVKDYFPEPVTVSWNSGALTSGVHTFPAVLQSSGLYSLSSVVTVPSSSLGTQTYICNVNHKPSNTKVDKKVEPKSCDKTHTCPPCPAPELLGGPSVFLFPPKPKDTLMISRTPEVTCVVVDVSHEDPEVKFNWYVDGVEVHNAKTKPREEQYQNTSRVVSVLTVLHQDWLNGKEYKCKVSNKALPAPIEKTISKAKGQPREPQVYTLPPSRDELTKNQVSLTCLVKGFYPSDIAVEWESNGQPENNYKTTPPVLDSDGSFFLYSKLTVDKSRWQQGNVFSCSVMHEALHNHYTQKSLSLSPGK
light: B1 light
notes: Full-length human IgG1; also called NSY

Molecular target: T1, Recombinant human FcγRI (human, UniProt P12314 16-292, limits assumed)
T1 construct: not shown: His tag (captured on anti-tetra-His antibody)
T1 sequence (P12314 16-292 limits assumed): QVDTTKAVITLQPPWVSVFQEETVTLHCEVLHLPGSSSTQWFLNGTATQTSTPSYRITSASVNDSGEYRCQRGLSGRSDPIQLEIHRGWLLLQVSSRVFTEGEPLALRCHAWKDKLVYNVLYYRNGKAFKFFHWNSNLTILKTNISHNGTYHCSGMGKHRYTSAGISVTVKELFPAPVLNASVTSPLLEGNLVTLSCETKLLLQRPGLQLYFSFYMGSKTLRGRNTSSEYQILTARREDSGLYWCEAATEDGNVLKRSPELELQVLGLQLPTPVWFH
Test: Biacore SPR; FcγRI captured on anti-tetra-His, antibody 100 nM

Binder | binding result
B1 | binds
B2 | binds
